The values that follow come from US20200353062A1, “PHARMACEUTICAL COMPOSITIONS, METHODS FOR PREPARATION COMPRISING SIZING OF LIPID VESICLE PARTICLES, AND USES THEREOF” (IMMUNOVACCINE TECHNOLOGIES INC., priority 2017, published 2020).

Several values for one entry are separate records, joined by “and”; a condition that tells them apart may be missing. Equal values may be shown once. Where no end group is shown, it is not given here. [ ]: non-standard residue; d: D form. Met(O) = CS(=O)CC[C@H](N)C(=O)O

Series [1] can be described thus: Peptide assay and peptide impurities by RP-HPLC. Type of series: physicochemical. Conditions: for Peptide Content by RP-HPLC / Peptide Impurities by RP-HPLC (% Area): compositions from sized lipid vesicle particles. On the procedure: Identification and quantification of peptides was performed using a reversed-phase HPLC (RP-HPLC) method. The method utilizes an Agilent 1100 Series HPLC system equipped with a Phenomenex Luna 5 μm C8(2) column. The mobile phase is a gradient of 16-37% (v/v) acetonitrile in 0.1% (v/v) aqueous trifluoroacetic acid. Column temperature is maintained at 50° C., and UV-PDA detection is performed at 215 nm. The assay may also be used to identify peptide impurities. The tests were validated to the extent required for a phase 1/2 clinical phase study (data not included).

Series [2] in a line: Lipid assay and degradant limit test by RP-HPLC. Conditions: for Lipid Impurities (HPLC) / Lipid Impurities (RP-HPLC): % of DOPC area; for Lipid Impurities (RP-HPLC): solubilized Batch #4 in vials, room temperature.
The mark [3] stands for this setting: sized-vesicle preparation stored at 5° C. ± 3° C., 0 months.
Setting [4] is: sized-vesicle preparation stored at 5° C. ± 3° C., 3 months.
[5] abbreviates: sized-vesicle preparation stored at 5° C. ± 3° C., 6 months.
Where [6] appears, read: sized-vesicle preparation stored at 5° C. ± 3° C., 9 months.
The mark [7] stands for this setting: sized-vesicle preparation stored at 5° C. ± 3° C., 12 months.
Where [8] appears, read: sized-vesicle preparation stored at 5° C. ± 3° C., 18 months.
Where [9] appears, read: sized-vesicle preparation stored at −20° C. ± 5° C., 0 months.
Setting [10] is: sized-vesicle preparation stored at −20° C. ± 5° C., 6 months.
Where [11] appears, read: sized-vesicle preparation stored at −20° C. ± 5° C., 12 months.
[12] abbreviates: sized-vesicle preparation stored at −20° C. ± 5° C., 18 months.
The mark [13] stands for this setting: compositions from sized lipid vesicle particles, Average (n = 5).
[14] abbreviates: compositions from sized lipid vesicle particles, individual Vial 1-5.
The mark [15] stands for this setting: solubilized Batch #4 in syringe, t = 60 min.

In the case of “LMLGEFLKL (Survivin HLA-A2 (modified)) [SurA2.M, survivin peptide antigen [HLA-A2]]”, the “Peptide Content by RP-HPLC” value in series [1] (Average (n = 5)) was 1.14 mg/mL; in series [1] (individual Vial 1-5), 1.11 mg/mL and 1.14 mg/mL (2×) and 1.15 mg/mL and 1.18 mg/mL. Besides, the “Peptide Assay (RP-HPLC)” value in series [1] (setting [3]) turned out to be 0.95 mg/mL; in series [1] (setting [4]), 0.91 mg/mL; in series [1] (setting [5]), 0.91 mg/mL; in series [1] (setting [6]), 0.89 mg/mL; in series [1] (setting [7]), 0.88 mg/mL; in series [1] (setting [8]), 0.91 mg/mL. Besides, the “Peptide Assay (RP-HPLC)” value in series [1] (setting [9]) amounted to 0.95 mg/mL; in series [1] (setting [10]) it was 0.92 mg/mL; in series [1] (setting [11]), 0.89 mg/mL; in series [1] (setting [12]) it was 0.91 mg/mL.

Take “RRT 3.66 LMLGEFLKL (M oxidized to sulfoxide; SEQ ID NO: 2): peptide impurity: LMLGEFLKL with M oxidized to sulfoxide (L[Met(O)]LGEFLKL)”: the “Peptide Impurities by RP-HPLC (% Area)” value was 0.55% in series [1] (Average (n = 5)); 0.65% and 0.40% and 0.53% and 0.58% and 0.57% in series [1] (individual Vial 1-5).

As for “RISTFKNWPK (Survivin HLA-A3 (modified)) [SurA3.K, survivin peptide antigen [HLA-A3], added after sizing]”, the “Peptide Content by RP-HPLC” value in series [1] (Average (n = 5)) is 0.89 mg/mL; in series [1] (individual Vial 1-5), 0.86 mg/mL and 0.90 mg/mL and 0.91 mg/mL and 0.88 mg/mL and 0.92 mg/mL. The “loss in content from the nominal target limit in the final bulk” value in series [1] (peptide combined with lipid mixture before size extrusion (retained by extruder membrane)) is listed as “approximately 25%”. The “Peptide Assay (RP-HPLC)” value is 1.04 mg/mL in series [1] (setting [3]); 0.99 mg/mL in series [1] (setting [4]); 0.93 mg/mL in series [1] (setting [5]); 0.92 mg/mL in series [1] (setting [6]); 0.93 mg/mL in series [1] (setting [7]); 1.02 mg/mL in series [1] (setting [8]). The “Peptide Assay (RP-HPLC)” value in series [1] (setting [9]) stood at 1.04 mg/mL; in series [1] (setting [10]), 0.98 mg/mL; in series [1] (setting [11]) it was 0.97 mg/mL; in series [1] (setting [12]) it was 1.02 mg/mL.

As to `CC(C)CCC[C@@H](C)[C@H]1CC[C@H]2[C@@H]3CC=C4C[C@@H](O)CC[C@]4(C)[C@H]3CC[C@]12C` [Cholesterol, cholesterol], the “Lipid Content by RP-HPLC” value in series [2] (setting [13]) is 11.36 mg/mL; in series [2] (setting [14]) it was 11.20 mg/mL and 11.62 mg/mL and 11.48 mg/mL and 11.44 mg/mL and 11.05 mg/mL. The “Lipid Assay (RP-HPLC)” value is on record as 11.03 mg/mL in series [2] (setting [3]); 11.30 mg/mL in series [2] (setting [4]); 12.26 mg/mL in series [2] (setting [5]); 12.11 mg/mL in series [2] (setting [6]); 12.00 mg/mL in series [2] (setting [7]); 12.25 mg/mL in series [2] (setting [8]). The “Lipid Assay (RP-HPLC)” value in series [2] (setting [9]) worked out at 11.03 mg/mL; in series [2] (setting [10]) it was 12.14 mg/mL; in series [2] (setting [11]), 11.10 mg/mL; in series [2] (setting [12]) it was 12.85 mg/mL.

With “STFKNWPFL (Survivin HLA-A24) [SurA24, survivin peptide antigen [HLA-A24]]”, the “Peptide Content by RP-HPLC” value is 0.93 mg/mL in series [1] (Average (n = 5)); 0.92 mg/mL and 0.94 mg/mL and 0.93 mg/mL and 0.91 mg/mL and 0.95 mg/mL in series [1] (individual Vial 1-5). The “Peptide Assay (RP-HPLC)” value in series [1] (setting [3]) is 1.00 mg/mL; in series [1] (setting [4]), 0.98 mg/mL; in series [1] (setting [5]), 0.98 mg/mL; in series [1] (setting [6]), 0.95 mg/mL; in series [1] (setting [7]), 0.95 mg/mL; in series [1] (setting [8]), 0.99 mg/mL. For the same compound, the “Peptide Assay (RP-HPLC)” value in series [1] (setting [9]) is 1.00 mg/mL; in series [1] (setting [10]) it was 0.99 mg/mL; in series [1] (setting [11]), 0.97 mg/mL; in series [1] (setting [12]) it was 1.00 mg/mL.

Turning to `CCCCCCCC/C=C\CCCCCCCC(=O)O[C@H](COC(=O)CCCCCCCCCCCCCCC)COP(=O)([O-])OCC[N+](C)(C)C` [POPC], the “Lipid Impurities (HPLC)” value in series [2] (solubilized Batch #4 in syringe, t = 0) is recorded as 2.10%; in series [2] (solubilized Batch #4 in syringe, t = 30 min), 2.91%; in series [2] (setting [15]), 2.94%. Besides, the “Lipid Impurities (RP-HPLC)” value in series [2] (t = 0) stood at 2.65%; in series [2] (t = 4 h), 1.21%; in series [2] (t = 24 h), 1.04%. Besides, the “Lipid Impurities (% Area)” value is 2.65% in series [2] (setting [13]); 2.79% and 2.62% and 2.63% and 2.61% and 2.59% in series [2] (setting [14]).

For `CCCCCCCC/C=C\CCCCCCCC(=O)OC[C@H](COP(=O)([O-])OCC[N+](C)(C)C)OC(=O)CCCCCCC/C=C\CCCCCCCC` [DOPC, 1,2-Dioleoyl-sn-glycero-3-phosphocholine], the “Lipid Content by RP-HPLC” value in series [2] (setting [13]) is 119.03 mg/mL; in series [2] (setting [14]) it was 117.39 mg/mL and 121.44 mg/mL and 120.26 mg/mL and 120.00 mg/mL and 116.07 mg/mL. Also, the “Lipid Assay (RP-HPLC)” value in series [2] (setting [3]) was 118.41 mg/mL; in series [2] (setting [4]), 112.91 mg/mL; in series [2] (setting [5]) it was 124.60 mg/mL; in series [2] (setting [6]), 130.11 mg/mL; in series [2] (setting [7]), 120.00 mg/mL; in series [2] (setting [8]), 121.35 mg/mL. Further, the “Lipid Assay (RP-HPLC)” value in series [2] (setting [9]) came to 118.41 mg/mL; in series [2] (setting [10]) it was 123.60 mg/mL; in series [2] (setting [11]), 102.63 mg/mL; in series [2] (setting [12]), 128.00 mg/mL.

For “FTELTLGEF (Survivin HLA-A1 (modified)) [SurA1.T, survivin peptide antigen [HLA-A1]]”, the “Peptide Content by RP-HPLC” value in series [1] (Average (n = 5)) was 1.09 mg/mL; in series [1] (individual Vial 1-5), 1.07 mg/mL (2×) and 1.10 mg/mL and 1.09 mg/mL and 1.11 mg/mL. The “Peptide Assay (RP-HPLC)” value in series [1] (setting [3]) stood at 1.03 mg/mL; in series [1] (setting [4]), 1.02 mg/mL; in series [1] (setting [5]), 1.03 mg/mL; in series [1] (setting [6]), 1.02 mg/mL; in series [1] (setting [7]), 0.97 mg/mL; in series [1] (setting [8]), 1.07 mg/mL. Besides, the “Peptide Assay (RP-HPLC)” value is recorded as 1.03 mg/mL in series [1] (setting [9]), 1.04 mg/mL in series [1] (setting [10]), 0.99 mg/mL in series [1] (setting [11]) and 1.04 mg/mL in series [1] (setting [12]).

With “LPPAWQPFL (Survivin HLA-B7) [SurB7, survivin peptide antigen [HLA-B7]]”, the “Peptide Content by RP-HPLC” value in series [1] (Average (n = 5)) was 1.09 mg/mL; in series [1] (individual Vial 1-5), 1.07 mg/mL (2×) and 1.11 mg/mL (2×) and 1.08 mg/mL. Besides, the “Peptide Assay (RP-HPLC)” value in series [1] (setting [3]) was determined as 1.09 mg/mL; in series [1] (setting [4]), 1.01 mg/mL; in series [1] (setting [5]), 1.00 mg/mL; in series [1] (setting [6]) it was 1.00 mg/mL; in series [1] (setting [7]), 0.99 mg/mL; in series [1] (setting [8]), 1.03 mg/mL. The “Peptide Assay (RP-HPLC)” value in series [1] (setting [9]) is reported as 1.09 mg/mL; in series [1] (setting [10]) it was 1.01 mg/mL; in series [1] (setting [11]), 1.01 mg/mL; in series [1] (setting [12]) it was 1.03 mg/mL.

As for `CCCCCCCC/C=C\CCCCCCCC(=O)O` [Oleic Acid, oleic acid], the “DOPC degradants by RP-HPLC” value in series [2] (setting [14]) is 0.60 mg/mL and 0.50 mg/mL; in series [2] (setting [15]) it was 0.60 mg/mL. Moreover, the “Lipid Degradants (RP-HPLC)” value worked out at 0.3 mg/mL in series [2] (setting [3]); 0.2 mg/mL in series [2] (setting [4]); 0.2 mg/mL in series [2] (setting [5]); 0.4 mg/mL in series [2] (setting [6]); 0.2 mg/mL in series [2] (setting [7]); 0.2 mg/mL in series [2] (setting [8]). Also, the “Lipid Degradants (RP-HPLC)” value in series [2] (setting [9]) was 0.3 mg/mL; in series [2] (setting [10]) it was 0.3 mg/mL; in series [2] (setting [11]) it was 0.2 mg/mL; in series [2] (setting [12]) it was 0.3 mg/mL.
